From US12486322 (ANNEXON, dated 2025)

What was measured:
human C1q [1] = molecular target: T1, human C1q (human, UniProt P02745 23-245; P02746 28-253; P02747 29-245); assay: direct ELISA, purified human C1q coated on the plate, luminescence
T1 construct: it describes C1q as having six globular heads; also called hC1q; human serum derived C1q
Description: Next day, plates are washed with dPBS thrice and blocked with 3% BSA/PBS for 1 hour at room temperature (RT). […] Following incubation for 1 hour at RT, plates are washed 4× with dPBS 0.05% Tween. Then, alkaline phosphatase (AP) conjugated secondary antibodies to human kappa (Abcam) and human FC (Jackson Immunoresearch), respectively at 2000-4000-fold dilution. After an additional 1 hour of incubation at RT, plates are washed 4× with dPBS 0.05% Tween and luminescence signal was developed with AP substrate (#T2214, Thermo Scientific). Luminescence counts were measured using a luminometer (Spectramax i3×, Molecular Devices). Raw counts were fit using a 4-parameter logistic to derive $EC50$ for human C1q binding (Prism, GraphPad).

human C1q [2] = molecular target: T1, human C1q; assay: cell-based or functional assay
[3] = molecular target: T2, Cynomolgus serum derived C1q (cynomolgus monkey, UniProt A0A2K5WJV6 23-243; A0A2K5WNK0 28-253); assay: sandwich ELISA, C1q from cynomolgus serum captured by JL-1
T2 construct: also called C1q derived from monkey serum; C1q in monkey serum
Excerpt: (§1) Evaluation of binding to serum derived C1q: We compared binding of anti-C1q molecules to C1q from monkey and human serum. Binding to serum derived C1q was preformed using a sandwich ELISA. In this assay, a monoclonal antibody specific to the collagen tail of C1q (JL-1, Abcam) was used to capture the C1q, and then detected using the anti-C1q antibodies, which bind to the globular head groups of C1q. […] Next day, the plates were washed with dPBS (pH 7.4) and blocked with dPBS buffer containing 3% bovine serum albumin (BSA). Diluted serum samples were added to the plates and incubated overnight shaking at 4° C. Human and monkey serum samples were used at 1:2000 dilution in assay buffer, dPBS containing 0.3% BSA and 0.1% tween. Following overnight incubation at 4 C, plates were warmed to room temperature for 2 hours. […] Plates were washed with dPBS with 0.05% tween and then incubated with alkaline phosphatase conjugated anti-human Fc or Kappa antibodies at 1:3000 dilution in assay buffer. Plates were then washed, and detected using an enzyme substrate (T2214, Thermo) and read in a plate reader. Counts were background subtracted and normalized to signal at highest concentration, % normalized values were plotted as a function of concentration for each of the antibodies. Data were fit using a 4-parameter logistic fit to derive $EC50$ of binding and plotted using GraphPad Prism.

human C1q [4] = molecular target: T1, human C1q; assay: sandwich ELISA, C1q from human serum captured by JL-1
Excerpt: as §1

[5] = molecular target: T2, Cynomolgus serum derived C1q; assay: sandwich ELISA, serum C1q captured by JL-1; the high end is tied to the single-arm antibody by Table 1 (2.1)
Excerpt: as §1

[6] = molecular target: T2, Cynomolgus serum derived C1q; assay: sandwich ELISA, serum C1q captured by JL-1; cynomolgus against human serum
Excerpt: as §1

human C1q [7] = molecular target: T1, human C1q; assay: sandwich ELISA, serum C1q captured by JL-1; the low end is tied to human serum by Table 1
Excerpt: as §1

[8] = molecular target: T2, Cynomolgus serum derived C1q; assay: sandwich ELISA, serum C1q captured by JL-1; the high end is tied to cynomolgus serum by Table 1
Excerpt: as §1

[9] = molecular target: T2, Cynomolgus serum derived C1q; assay: cell-based or functional assay
human C1q [10] = molecular target: T1, human C1q; assay: cell-based or functional assay; remark: listed apart in the source

T1 sequence (P02745 23-245 limits assumed, chain 1 of 3): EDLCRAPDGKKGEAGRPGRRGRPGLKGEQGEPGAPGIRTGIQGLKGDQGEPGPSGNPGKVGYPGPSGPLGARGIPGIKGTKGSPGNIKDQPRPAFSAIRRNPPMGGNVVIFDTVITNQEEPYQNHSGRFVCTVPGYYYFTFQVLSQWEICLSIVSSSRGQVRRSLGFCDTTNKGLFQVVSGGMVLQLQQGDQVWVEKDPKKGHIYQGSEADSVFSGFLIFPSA
T1 sequence (P02746 28-253 limits assumed, chain 2 of 3): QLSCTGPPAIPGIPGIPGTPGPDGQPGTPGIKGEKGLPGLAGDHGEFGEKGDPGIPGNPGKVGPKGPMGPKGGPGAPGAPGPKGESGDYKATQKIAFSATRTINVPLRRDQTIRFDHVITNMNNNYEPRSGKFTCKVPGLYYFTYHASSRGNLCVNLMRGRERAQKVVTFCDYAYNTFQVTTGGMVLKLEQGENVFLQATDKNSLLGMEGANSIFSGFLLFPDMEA
T1 sequence (P02747 29-245 limits assumed, chain 3 of 3): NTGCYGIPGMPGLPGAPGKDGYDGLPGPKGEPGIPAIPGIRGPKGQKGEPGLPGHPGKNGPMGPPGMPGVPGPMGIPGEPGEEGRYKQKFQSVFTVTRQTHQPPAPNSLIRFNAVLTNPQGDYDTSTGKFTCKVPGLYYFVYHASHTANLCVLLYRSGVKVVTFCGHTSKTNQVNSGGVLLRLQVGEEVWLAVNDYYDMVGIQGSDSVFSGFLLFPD

B1: anti-C1q single-arm antibody (with IgG4 and Fcγ receptor binding site mutation) (antibody)
light: DVQITQSPSSLSASLGERATINCRASKSINKYLAWYQQKPGKAPKLLIYSGSTLQSGIPARFSGSGSGTDFTLTISSLEPEDFAMYYCQQHNEYPLTFGQGTKLEIKRTVAAPSVFIFPPSDEQLKSGTASVVCLLNNFYPREAKVQWKVDNALQSGNSQESVTEQDSKDSTYSLSSTLTLSKADYEKHKVYACEVTHQGLSSPVTKSFNRGEC
heavy: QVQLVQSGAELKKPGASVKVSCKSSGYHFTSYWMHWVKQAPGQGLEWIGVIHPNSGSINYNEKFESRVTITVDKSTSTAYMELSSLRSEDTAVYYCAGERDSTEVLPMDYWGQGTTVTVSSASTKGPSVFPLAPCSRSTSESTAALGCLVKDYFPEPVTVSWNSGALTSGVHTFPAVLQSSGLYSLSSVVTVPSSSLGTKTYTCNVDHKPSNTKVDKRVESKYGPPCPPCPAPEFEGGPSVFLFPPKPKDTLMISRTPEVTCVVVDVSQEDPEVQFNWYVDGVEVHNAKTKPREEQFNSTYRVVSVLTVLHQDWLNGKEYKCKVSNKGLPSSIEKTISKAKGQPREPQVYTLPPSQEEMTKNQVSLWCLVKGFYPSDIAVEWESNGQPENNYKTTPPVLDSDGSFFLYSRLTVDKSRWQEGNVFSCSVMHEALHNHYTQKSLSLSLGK
chain: ESKYGPPCPPCPAPEFEGGPSVFLFPPKPKDTLMISRTPEVTCVVVDVSQEDPEVQFNWYVDGVEVHNAKTKPREEQFNSTYRVVSVLTVLHQDWLNGKEYKCKVSNKGLPSSIEKTISKAKGQPREPQVYTLPPSQEEMTKNQVSLSCAVKGFYPSDIAVEWESNGQPENNYKTTPPVLDSDGSFFLVSRLTVDKSRWQEGNVFSCSVMHEALHNHYTQKSLSLSLGK
notes: The third chain is the N-terminally truncated heavy chain (hinge-CH2-CH3, hole mutations); also called single-arm molecule; anti-C1q single-arm antibody (monovalent)
- EC50 (human C1q [1]): 0.05 nM
- IC50 for inhibition of serum hemolysis (human C1q [2]): 3 to 10 nM
- EC50 [3]: 378 nM
- EC50 (human C1q [4]): 178 nM
- fold weaker binding EC50 in cynomolgus serum compared to human serum [5]: 1 to 2 fold
- Ratio Cyno:Human (binding EC50) [6]: 2.1
- EC50 (human C1q [7]): 150 to 400 nM
- EC50 [8]: 150 to 400 nM
- IC50 for hemolysis inhibition (nM), Cyno serum [9]: 5.5 nM
- IC50 for hemolysis inhibition, Ratio Cyno:Human [9]: 0.6
- IC50 for hemolysis inhibition (nM), Human serum (human C1q [10]): 9.9 nM
